According to US20240182563A1 (GENOME, published 2024):
Numbering of substitutions follows the chain as printed. Numbers in names are those of the source.

T1: mouse CNTN4-rabbit Fc (mouse; rabbit, UniProt Q69Z26 19-1000, limits assumed)
T1 construct: not shown: rabbit Fc
T1 sequence (looked up): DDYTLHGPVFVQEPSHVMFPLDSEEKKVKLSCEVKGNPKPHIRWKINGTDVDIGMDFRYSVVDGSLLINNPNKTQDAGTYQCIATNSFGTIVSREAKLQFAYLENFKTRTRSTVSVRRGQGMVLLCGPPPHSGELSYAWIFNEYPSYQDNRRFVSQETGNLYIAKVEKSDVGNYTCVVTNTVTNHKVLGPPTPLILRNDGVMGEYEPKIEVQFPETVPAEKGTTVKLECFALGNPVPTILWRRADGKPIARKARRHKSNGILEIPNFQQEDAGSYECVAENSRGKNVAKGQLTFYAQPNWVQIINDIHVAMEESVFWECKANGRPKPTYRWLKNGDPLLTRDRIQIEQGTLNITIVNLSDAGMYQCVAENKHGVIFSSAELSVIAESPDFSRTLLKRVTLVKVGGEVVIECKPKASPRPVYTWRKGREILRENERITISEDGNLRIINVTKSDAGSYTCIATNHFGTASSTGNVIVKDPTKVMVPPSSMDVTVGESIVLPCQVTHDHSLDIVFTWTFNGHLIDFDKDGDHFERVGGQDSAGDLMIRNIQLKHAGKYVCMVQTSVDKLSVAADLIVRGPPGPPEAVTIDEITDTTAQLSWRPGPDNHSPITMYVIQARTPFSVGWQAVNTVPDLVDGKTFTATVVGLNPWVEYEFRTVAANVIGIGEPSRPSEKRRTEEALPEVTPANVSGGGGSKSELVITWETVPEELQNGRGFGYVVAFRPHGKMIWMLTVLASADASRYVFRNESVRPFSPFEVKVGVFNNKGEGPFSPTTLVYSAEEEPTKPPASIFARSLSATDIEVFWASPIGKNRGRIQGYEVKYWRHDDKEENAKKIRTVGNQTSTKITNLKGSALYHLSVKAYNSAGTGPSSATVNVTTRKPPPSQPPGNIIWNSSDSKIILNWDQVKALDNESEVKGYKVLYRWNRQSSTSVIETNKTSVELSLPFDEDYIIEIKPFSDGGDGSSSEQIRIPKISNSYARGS

T2: human CNTN4-rabbit Fc (human; rabbit, UniProt Q8IWV2 19-1000, limits assumed)
T2 construct: not shown: rabbit Fc
T2 sequence (looked up): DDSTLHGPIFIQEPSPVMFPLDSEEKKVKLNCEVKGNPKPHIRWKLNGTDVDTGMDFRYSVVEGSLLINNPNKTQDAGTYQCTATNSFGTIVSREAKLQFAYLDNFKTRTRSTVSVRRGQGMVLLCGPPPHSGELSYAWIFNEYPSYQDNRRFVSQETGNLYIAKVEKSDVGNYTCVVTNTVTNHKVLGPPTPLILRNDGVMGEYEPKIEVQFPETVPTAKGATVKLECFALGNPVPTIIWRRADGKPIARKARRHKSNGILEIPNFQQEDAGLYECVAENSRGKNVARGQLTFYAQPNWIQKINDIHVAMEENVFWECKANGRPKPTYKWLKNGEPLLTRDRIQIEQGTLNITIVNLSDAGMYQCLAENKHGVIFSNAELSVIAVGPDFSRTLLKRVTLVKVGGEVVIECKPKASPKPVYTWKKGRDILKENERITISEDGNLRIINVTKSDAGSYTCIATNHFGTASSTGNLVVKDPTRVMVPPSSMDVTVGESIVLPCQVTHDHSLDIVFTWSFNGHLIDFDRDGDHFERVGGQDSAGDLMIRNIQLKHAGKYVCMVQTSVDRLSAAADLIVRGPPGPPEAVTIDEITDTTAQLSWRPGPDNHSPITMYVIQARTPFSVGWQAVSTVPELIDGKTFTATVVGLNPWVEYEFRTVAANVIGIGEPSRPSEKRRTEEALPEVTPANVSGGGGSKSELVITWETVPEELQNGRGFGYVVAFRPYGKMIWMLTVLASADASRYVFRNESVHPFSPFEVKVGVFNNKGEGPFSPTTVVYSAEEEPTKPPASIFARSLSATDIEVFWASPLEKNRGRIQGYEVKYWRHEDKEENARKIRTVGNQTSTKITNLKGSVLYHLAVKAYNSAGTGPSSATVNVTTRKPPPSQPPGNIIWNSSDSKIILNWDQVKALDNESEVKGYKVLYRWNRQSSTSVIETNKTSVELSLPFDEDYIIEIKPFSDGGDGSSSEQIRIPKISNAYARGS

T3: human CNTN4 antigen expressed on the cell membrane of 293FT cells (human) (UniProt Q8IWV2)
T3 sequence (looked up): T2 sequence (looked up)

T4: human CNTN4 antigen expressed on the cell membrane of 293FT cells (human, UniProt Q8IWV2 19-1000)
T4 construct: whole, on cells; also called Human CNTN4 transfected cell
T4 sequence (looked up): T2 sequence (looked up)

B1: anti-CNTN4 scFv-hCk S1 (scFv, part only; not given: linker and kappa constant region, not shown: a dimerising Fc or GST)
scFv, part: ALTQPSSVSANPGETVKITCSGGSSYGWYQQKSPGSAPVTVIYDNTNRPSNIPSRFSGSKSGSTNTLTITGVRAEDEAVYFCGGYDSSIDAFGAGTTLTVLAVTLDESEGGLQTPGGALSLVCKASGFTFSSFNMFWVRQAPGKGLEYVAEISGGGGSTWYAPAVKGRATISRDNGQSTVRLQLNNLRAEDTGTYYCAKSADTWSYGAATIDAWGHGTEVIVSS
B2: anti-CNTN4 scFv-hCk S4 (scFv, part only; not given: linker and kappa constant region, not shown: a dimerising Fc or GST)
scFv, part: ALTQPSSVSANPGESVKITCSGGGSSYYGWYQQKSPGSAPVTLIYQNTNRPSNIPSRFSGSGSGSTGTLTITGVRAEDEAVYYCGGYDGSTDVFGAGTTLTVLAVTLDESEGGLQTPGGALSLVCKASGFTFSSFNMFWVRQAPGKGLEYVAEISGGGGSTWYASAVKGRATISRDNGQSTVRLQLNNLRAEDTGTYYCAKSADTWSYGAATIDAWGHGTEVIVSS
B3: anti-CNTN4 scFv-hCk S6 (scFv, part only; not given: linker and kappa constant region, not shown: a dimerising Fc or GST)
scFv, part: ALTQPSSVSANPGETVKITCSGGSGNYGWYQQKSPGSAPVTVIYNGNNRPSDIPSRFSGSGSGSTNTLAITGVQAEDEAVYFCGGYDGTIDAFGAGTTLTVLAVTLDESEGGLQTPGGALSLVCKASGFTFSSFNMFWVRQAPGKGLEYVAEISGGGGSTWYAPAVKGRATISRDNGQSTVRLQLNNLRAEDTGTYYCAKSADTWSYGAATIDAWGHGTEVIVSS
B4: anti-CNTN4 scFv-hCk S24 (scFv, part only; not given: linker and kappa constant region, not shown: a dimerising Fc or GST)
scFv, part: ALTQPSSVSANPGETVEITCSGGSGSYGWYQQKAPGSAPVTVIYDNTNRPSNIPSRFSGSGSDSTGTLTITGVQADDEAVYYCGSYDSIEVIFGAGTTLTVLAVTLDESGGGLHTPGGALSLVCKASGFTFSSYGMAWVRQAPGKGLEWVAGITSSGSSAGYGPAVKGRATISRDNGQSTVRLQLNNLRAEDTATYYCAKDGYIYSGGDSDSIDAWGHGTEVIVSS
B5: anti-CNTN4 scFv-hCk S46 (scFv, part only; not given: linker and kappa constant region, not shown: a dimerising Fc or GST)
scFv, part: B4 scFv, part with E78K, G208A
B6: anti-CNTN4 scFv-hCk S83 (scFv, part only; not given: linker and kappa constant region, not shown: a dimerising Fc or GST)
scFv, part: ALTQPSSVSANLGETVKITCSGGGGYSGSYYYGWYQQKSPAGAPDTVIYSNNQRPSNIPSRFSGSKSGSTGTLTITEDHAEDEAVYYCGSIDSSSNPGIFGAGTTLTVLAVTLDKSGGGLHTPGGALSLVCKASGFTFSRYIMQWVLQAPGKVLEWVASIRNGTTPKYGAAVKGRATISRDNGQSTVMLQLNSLTYDDTDAYYCDRGDDGDCICGGCAASIDIWCYATEVIVSS
B7: anti-CNTN4 scFv-hCk S96 (scFv, part only; not given: linker and kappa constant region, V domains shown, not shown: another chain or arm of the molecule; a dimerising Fc or GST; small tags and cut ends)
VL: ALTQPSSVSANPGETVKITCSGSSGSYGYSWHQQKSPGSAPVTVIYESNKRPSNIPSRFSGSTSGSTSTLTITGVQADDEAVYFCGSADSSTTIAFGAGTTLTVL
VH: AVTLDESGGGLQTPGGTLSLVCKASGFTFSTYSMQWLRQAPGKGLEWVAGISNSGSSTVYGPAVKGRATISRDNGQSTVSLQLNNLRAEDTGTYYCAKSTYGGSWYAAYSIDEWGHGTEVIVSS
B8: anti-CNTN4 scFv-hCk S99 (scFv, part only; not given: linker and kappa constant region, V domains shown, not shown: another chain or arm of the molecule; a dimerising Fc or GST; small tags and cut ends)
VL: ALTQPSSVSANPGETVKITCSGGASYAGNYYYGWYQQKSPGSAPVTVIYNNNQRPSDIPSRFSGSLSGSTNTLTITGVQADDEAVYFCGSDDSSAGYTGIFGAGTTLTVL
VH: AVTLDESGGGLQTPGGALSLVCKASEFTFSGYGMHWVRQAPGKGLEFVAEISNTGSWTGYGAAVKGRATISRDNGQSTVRLQLNNLKADDTATYYCAKVGGRGWCGRSGCADDIDAWGHGTEVIVSS
B9: anti-CNTN4 scFv-hCk S129 (scFv, part only; not given: linker and kappa constant region, not shown: a dimerising Fc or GST)
scFv, part: ALTQPSSVSANLGETVKITCSGSSGSYGWYQQKSPGSAPVTLIYDNTNRPSDIPSRFSGSGSGSTGTLTITGVRAEDEAVYYCGGYDGSTDVFGAGTTLTVLAVTLDESEGGLQTPGGALSLVCKASGFTFSSFNMFWVRQAPGKGLEYVAEISGGGGSTWYAPAVKGRATISRDNGQSTVRLQLNNLRAEDTGTYYCAKSADTWSYGAATIDAWGHGTEVIVSS
B10: anti-CNTN4 scFv-hCk S131 (scFv, part only; not given: linker and kappa constant region, not shown: a dimerising Fc or GST)
scFv, part: B2 scFv, part with P12L, E14G, S15T, S165P
B11: anti-CNTN4 IgG A35SF39 (antibody, V domains shown)
VH: AVTLDESGGGLHTPGGALSLVCKASGFTFSSYGMAWVRQAPGKGLEWVAGITSSGSSAGYGPAVKGRATISRDNGQSTVRLQLNNLRAEDTATYYCAKDGYIYSGADSDSIDAWGHGTEVIVSS
VL: ALTQPSSVSANLGGTVKITCSGGSGSYGWYQQKSPGSAPVTVIYNNNNRPSDIPSRFSGSTSGSTGTLTITGVRAEDEAVYFCGGYDTDSPIFGAGTTLTVL
notes: human IgG4 (S228P)
B12: anti-CNTN4 IgG A35SF75 (antibody, V domains shown)
VH: B11 VH
VL: ALTQPSSVSANPGVTVKITCSGGGGSYGWYQQKAPGSAPVTLIYNNTNRPSDIPSRFSGSRSGSTNTLTITGVQAEDEAVYFCGGYDSNTDYVGFGAGTTLTVL
notes: human IgG4 (S228P)
B13: anti-CNTN4 IgG A35SF90 (antibody, V domains shown)
VH: B11 VH
VL: ALTQPSSVSANLGGTVEITCSGSNNNNYGWYQQKTPGSAPVTLIYNNNQRPSDIPSRFSGSKSGSTGTLTITGVRAEDEAVYYCGGYDSSIYFDIFGAGTTLTVL
notes: human IgG4 (S228P)

Assays:
[1] = target: T1, mouse CNTN4-rabbit Fc; test: ELISA, plate coated with antigen-rabbit Fc, anti-human kappa-HRP
[2] = target: T2, human CNTN4-rabbit Fc; test: as above
[3] = target: T3, human CNTN4 antigen expressed on the cell membrane of 293FT cells (human); test: FACS, 293FT cells transfected with human CNTN4, 40 ug/mL, anti-hCk-PE
[4] = target: T4, human CNTN4 antigen expressed on the …; test: FACS, 293FT cells transfected with human CNTN4, 40 ug/mL, anti-hFc-PE
[5] = target: T1, mouse CNTN4-rabbit Fc; test: ELISA, plate coated with antigen-rabbit Fc, anti-human IgG Fc-HRP
Description: (§1) An ELISA tests were performed on a total of 25 scFv-hCks and a total of 27 IgGs for which the expression was confirmed in Example 1.2. An ELISA plate was coated with 200 ng of antigens (human CNTN4-rabbit Fc or mouse CNTN4-rabbit Fc). 200 ng of a negative control (human antigen-rabbit Fc) for a tagging protein was used. For antibody binding, anti-CNTN4 scFv-hCk was serially diluted from a maximum of 1 μM to 0.001 nM by 1/10×each, and anti-CNTN4 IgG was serially diluted from a maximum of 10 nM to 0.00001 nM by 1/10×each, thereby binding to the antigen. Anti-human kappa-HRP or anti-human IgG Fc-HRP was used as the secondary antibody for antibody detection. Color was developed using ABTS, which is a color developing reagent, and the absorbance at 405 nm was measured.

[6] = target: T2, human CNTN4-rabbit Fc; test: as above
Description: as §1

| Binder | EC50 [1] [nM] | EC50 [2] [nM] | Shift % [3] [%] | Shift % [4] [%] | EC50 [5] [nM] | EC50 [6] [nM] |
| --- | --- | --- | --- | --- | --- | --- |
| B1 | 1.53 | 4.44 | 13.8 | – | – | – |
| B2 | 1.15 | 2.6 | 15.4 | – | – | – |
| B3 | 1.85 | 0.37 | 14.7 | – | – | – |
| B4 | 2.07 | 1.12 | 5.63 | – | – | – |
| B5 | 1.2 | 1.22 | 8.19 | – | – | – |
| B6 | – | – | 5.27 | – | – | – |
| B7 | – | – | 1.69 | – | – | – |
| B8 | 3.64 | 8.34 | 20.5 | – | – | – |
| B9 | 0.37 | 0.55 | 16 | – | – | – |
| B10 | 0.56 | 0.74 | 16.6 | – | – | – |
| B11 | – | – | – | 80 | 0.01 | 0.01 |
| B12 | – | – | – | 84.8 | 0.2 | 0.21 |
| B13 | – | – | – | 82.8 | 0.01 | 0.01 |
